Test results published in the supplement of paper PMC9170038.

Test system: K4 kissing-loop RNA reporter
Experiment: apparent KD of K4 kissing-loop reporter; higher = weaker reporter binding
Conditions: Eterna round: R107
Protocol: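 RNA-MaP round R107: designed RNA switches with theophylline, tryptophan, arginine or FMN aptamers are transcribed on-chip within common flanks. They are titrated with a labelled K4 kissing-loop RNA reporter in RNA-MaP buffer (100 mM Tris pH 7.5, 80 mM KCl, 4 mM MgCl2), without ligand or with the indicated ligand. Median apparent KD per design.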

[1] = input ligand: theophylline 20 uM
[2] = input ligand: tryptophan 2.4 mM
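Further: bound reporter read as fluorescence of individual clusters on recovered sequencing chips by microscopy, with normalized cluster intensities fitted with a binding model.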

Sequence | apparent KD of K4 kissing-loop reporter (input ligand: FMN 200 uM) [nM] | apparent KD of K4 kissing-loop reporter (input ligand: arginine 13.2 mM) [nM] | apparent KD of K4 kissing-loop reporter (input ligand: none) [nM] | apparent KD of K4 kissing-loop reporter [1] [nM] | apparent KD of K4 kissing-loop reporter [2] [nM]
GGAUCCUAGGCGGCCGCCACUCCAAUUGGCCGAAAGGCCUGAUACCGAGUGAUGUUCGGUUGGAGGAGGACCGGGCCUAGGAUCC [#2 Exclusion - Tryptophan B Attempt #2 (HarryS)] | 144 | 132 | 118 | 165 | 104
GGAUUCGGCGCGGCCGCCACUUCCGGUGGCUGGUGUCAUGGUGCGCGUGAGUGAUGUUUAUGUGGGAGGACCGGGCGUUGAGUCC [whbob_Ex_Tryp_B_w45] | 577 | 322 | 767 | 441 | 305
GGCACGUUCCCUUGAUCAGUGAUGUUGUUUCGAGGACCGGUACGGCCGCCACUCGCUCGGCGUUCGCCCAGGCCCGGAAAACUGC [theeternabot_exclusion_KL_Trp_A_13] | 241 | 207 | 224 | 217 | 225
GGCCGCAAGGCGAGCGCUCCCACUCCGGAAGGAGCGCCCGCAAGGGCAGGUAGGUCGCCGGAGUGAUGUUCCGGUGGAGGGCUCG [#2 Exclusion - Arginine A Attempt #16 (Inspired by Omei)] | 398 | 271 | 369 | 127 | 338
GGCCGGAAGGCGAGCGCUCCCACUCCGGAAGGAGCGCCCGUAAGGGCAGGUAGGUCGCCGGAGUGAUGUUCCGGUGGAGGGCUCG [#2 Exclusion - Arginine A Attempt #21 (Inspired by Omei)] | 165 | 106 | 180 | 302 | 186
GGCGGCUGCGCGCAAGCGCAGCCGGCCGAUACCAGCGCGACGGCGCGCCCUUGGCAGCGGCGCCGAGUGAUGUUCGGCCUGCCGU [#2 Same State - Theophylline A Attempt #22 (HarryS)] | 113 | 98.1 | 129 | 149 | 141
GGCGUCAAACCAGAACUAGUGAUGUUGGUUCGAGGACCGGUACGGCCGCCACUCGAUCUCUUGGUCCAUCGCGGAAGGGCAGCGG [theeternabot_exclusion_KL_Trp_A_29] | 511 | 369 | 532 | 414 | 622
GGGAGAAGUGCGGCCGCCACUGAGAAAGAAGAAGAAUAUAGUGAUGUUAUAUAGGAAAGGAAGAACAGGACCGGGCAUAAGAGGG [SSTryptB.A] | 104 | 148 | 126 | 131 | 99.1
GGGAGGAGUGGUGUUGAUUAGGGAGCGGAAGGAGCGCCGAAGAAGGCAGGUAGGUCGCCGGAAUAUAGUGAUGUUAUAUAGAGGG [ExArg.G] | 304 | 211 | 270 | 168 | 201
GGGAGGAUUAAAUAAAUAAAUAAGAUAGAUACCAGUUGAGAGUAAGGCCCUUGGCAGCUAAAACGAGUGAUGUUCGAGUAAAUCC [Default title] | 81.6 | 88.8 | 63 | 147 | 62.4
GGGAGUAGUGCGGCCGCCACUGAGAAAGAAGAAGAAUAUAGUGAUGUUAUAUAGGAAUAAAAGAACAGGACCGGGCAUUAGAUUU [SSTRyptB.T] | 263 | 239 | 255 | 196 | 167
GGGCUGGUGCUAGGAUAUGCGAUGAAUGCUCAGGAAACCUUGAGUCCGCAGUGAUGUUGCGGCACCGCAGAAGGAGCUUAGGCUC [Esbequ] | 146 | 263 | 222 | 292 | 172
GGGUCUGCGCGAAGGAGCGCCCUGACAGGUUGCUGCCGUGGGCAGUGAUGUUGCUCAGUCCGGCAGGUAGGUCGCGUGCAGACCC | 135 | 161 | 176 | 169 | 160
GGUAGCAUGGCGGCCGCCACUAAGAGAGUGAUGUUCUCUUAGUUUUUUGAUAUAUUAUCAAUUCUUAGGACCGGGCCAUGCUACC | 121 | 79.9 | 94.7 | 98.9 | 100
GGUAGCAUGGCGGCCGCCACUACAAGUAGUGACCCAAGUGAUGUUUGGAAGCGGGUCCUAAUUGGUAGGACCGGGCCAUGCUACC | 509 | 502 | 496 | 401 | 566
GGUAGCAUGGCGGCCGCCACUUUUUUAGAUACCUACACAGAAAGCAGUGAUGUUGCUUGGUGGUAAAGGACCGGGCCAUGCUACC | 149 | 131 | 136 | 137 | 105
